Experimental findings from the RNAGym collection of RNA variant scans (doi:10.7554/elife.80360) are described below.

First the molecules themselves.
B1: HDV Ribozyme (parent)
chain: GGCCGGCAUGGUCCCAGCCUCCUCGCUGGCGCCGGCUGGGCAACAUUCCGAGGGGACCGUCCCCUCGGUAAUGGCGAAUGGGACCCA

Variants of B1 are the subject of the series. The experiment in a line: self-cleavage, relative activity (ratio to wild type); higher = more cleavage; co-transcriptional.
In the case of GGCCGGCAUGGUUCCAGCCUCCUCGCUGGCGCCGGCUGGGCAACAAUCCGAGGGGACCGUCCCCUCGGUAAUGGCGAAUGGGACCCA [C13U U46A], the self-cleavage was found to be 0.219.

With GGCCGGCAUGGUUCCAGCCUCCUCGCUGGCGCCGGCUGGGCAACAUUCCGAGUGGACCGUCCCCUCGGUAAUGGCGAAUGGGACCCA [C13U G53U], the self-cleavage was determined as 0.671.

On to GGCCGGCAUGGUUCCAGCCUCCUCGCUGGCGCCGGCUGGGCAACAUUCCGAGGGGACCGUCCCCUCGGUAAUGGCGAAUCGGACCCA [C13U G80C], for which the self-cleavage was found to be 0.0332.

Consider GGCCGGCAUGGUUCCAGCCUCCUCGCUGGCGCCGGCUGGGCAACAUUCCGAGGGAACCGUCCCCUCGGUAAUGGCGAAUGGGACCCA [C13U G55A], for which the self-cleavage was determined as 0.702.

With GGCCGGCAUGGUUCCAGCCUCCUCGCUGGCGCCGGCUGGGCAACAUUCCAAGGGGACCGUCCCCUCGGUAAUGGCGAAUGGGACCCA [C13U G50A], the self-cleavage is 0.439.

As to GGCCGGCAUGGUUCCAGCCUCCUCGCUGGCGCCGGCUGGGCAACAUUCCGACGGGACCGUCCCCUCGGUAAUGGCGAAUGGGACCCA [C13U G52C], the self-cleavage is 0.639.

For the variant GGCCGGCAUGGUUCCAGCCUCCACGCUGGCGCCGGCUGGGCAACAUUCCGAGGGGACCGUCCCCUCGGUAAUGGCGAAUGGGACCCA [C13U U23A], the self-cleavage turned out to be 0.571.

Consider GGCCGGCAUGGUUCCAGCCUCCUCGCUGGCGCCGGCUGAGCAACAUUCCGAGGGGACCGUCCCCUCGGUAAUGGCGAAUGGGACCCA [C13U G39A], for which the self-cleavage came out at 0.332.

Consider GGCCGGCAUGGUUCCAGCCUCCUCGCUGGCGCCGGCUGCGCAACAUUCCGAGGGGACCGUCCCCUCGGUAAUGGCGAAUGGGACCCA [C13U G39C], for which the self-cleavage is 0.0369.

As to GGCCGGCAUGGUUCCAGCCUCCUCGCUGGCGCCGGCUGGGCAACAUUCCGAGGGGACCGUCCCCUCGGUAAUGCCGAAUGGGACCCA [C13U G74C], the self-cleavage is 0.0627.

With GGCCGGCAUGGUUCCAGCCUCCUCGCUGGCGCCGGCUGGGCAACAUUCCGAGGGGACCGUCCCCUCGGUAAUGGCGAAUGUGACCCA [C13U G81U], the self-cleavage worked out at 0.163.

Consider GGCCGGCAUGGUUCCAGCCUCCUCGCUGGCGCCGGCUGGGCAACAUUCCGAGGGGACCGUCCCCUCCGUAAUGGCGAAUGGGACCCA [C13U G67C], for which the self-cleavage came out at 0.374.

For GGCCGGCAUGGUUCCAGCCUCCUCGCUGGCGCCGGCUGGGCAACAUUCCGAGGGGACCGUCCCCUCAGUAAUGGCGAAUGGGACCCA [C13U G67A], the self-cleavage amounted to 0.572.

With GGCCGGCAUGGUUCCAGCCUCCUCGCUGGCGCCGGCUGGGCAACAUUCCGAGGGGACCAUCCCCUCGGUAAUGGCGAAUGGGACCCA [C13U G59A], the self-cleavage amounted to 0.763.

As to GGCCGGCAUGGUUCCAGCCUCCUCGCUGGCGCCGGCCGGGCAACAUUCCGAGGGGACCGUCCCCUCGGUAAUGGCGAAUGGGACCCA [C13U U37C], the self-cleavage came to 0.369.

Regarding GGCCGGCAUGGUUCCAGCCUCCUCGCUGGCGCCGGCGGGGCAACAUUCCGAGGGGACCGUCCCCUCGGUAAUGGCGAAUGGGACCCA [C13U U37G], the self-cleavage was 0.138.

With GGCCGGCAUGGUUCCAGCCUCCUCGCUGGCGCCGGCAGGGCAACAUUCCGAGGGGACCGUCCCCUCGGUAAUGGCGAAUGGGACCCA [C13U U37A], the self-cleavage is 0.0308.

As to GGCCGGCAUGGUUCCAGCCUCCUCGCUGGCGCCGGCUGGACAACAUUCCGAGGGGACCGUCCCCUCGGUAAUGGCGAAUGGGACCCA [C13U G40A], the self-cleavage stood at 0.365.

On to GGCCGGCAUGGUUCCAGCCUCCUCGCUGGCGCCGGCUGGGCAACAUUCCGAGGGGACCGUCCCCUCGGUAAUGGCUAAUGGGACCCA [C13U G76U], for which the self-cleavage turned out to be 0.813.

For the variant GGCCGGCAUGGUUCCAGCCUCCUCGCUGGCGCCGGCUGGGCAACAUUCCGAGGGGACCGUCCCCUCGGUAAUUGCGAAUGGGACCCA [C13U G73U], the self-cleavage was determined as 0.0875.

On to GGCCGGCAUGGUUCCAGCCUCCUCGCUGGCGCCGGCUGGGCAACAUUCCGAGGGGACCGUCCCCUCGGUAAUAGCGAAUGGGACCCA [C13U G73A], for which the self-cleavage worked out at 0.128.

On to GGCCGGCAUGGUUCCAGCCUCCUCGCUGGCGCCGGCUAGGCAACAUUCCGAGGGGACCGUCCCCUCGGUAAUGGCGAAUGGGACCCA [C13U G38A], for which the self-cleavage is 0.138.

In the case of GGCCGGCAUGGUUCCAGCCUCCUCGCUGGCGCCGGCUUGGCAACAUUCCGAGGGGACCGUCCCCUCGGUAAUGGCGAAUGGGACCCA [C13U G38U], the self-cleavage stood at 0.149.

In the case of GGCCGGCAUGGUUCCAGCCUCCUCGCUGGCGCCGGCUGGGCAACAUUCCGAGGAGACCGUCCCCUCGGUAAUGGCGAAUGGGACCCA [C13U G54A], the self-cleavage came to 0.739.

For the variant GGCCGGCAUGGUUCCAGCCUCCUCGCGGGCGCCGGCUGGGCAACAUUCCGAGGGGACCGUCCCCUCGGUAAUGGCGAAUGGGACCCA [C13U U27G], the self-cleavage is 1.06.

On to GGCCGGCAUGGUUCCAGCCUCCUCGCCGGCGCCGGCUGGGCAACAUUCCGAGGGGACCGUCCCCUCGGUAAUGGCGAAUGGGACCCA [C13U U27C], for which the self-cleavage was found to be 0.615.

In the case of GGCCGGCAUGGUUCCAGCCCCCUCGCUGGCGCCGGCUGGGCAACAUUCCGAGGGGACCGUCCCCUCGGUAAUGGCGAAUGGGACCCA [C13U U20C], the self-cleavage is 0.0978.

GGCCGGCAUGGUUCCAGCCGCCUCGCUGGCGCCGGCUGGGCAACAUUCCGAGGGGACCGUCCCCUCGGUAAUGGCGAAUGGGACCCA [C13U U20G]: the self-cleavage turned out to be 0.135.

Regarding GGCCGGCAUGGUUCCAGCCUCCUCGCUGGCGCCUGCUGGGCAACAUUCCGAGGGGACCGUCCCCUCGGUAAUGGCGAAUGGGACCCA [C13U G34U], the self-cleavage came out at 0.0268.

GGCCGGCAUGGUUCCAGCCUCCUCGCUGGCGCCCGCUGGGCAACAUUCCGAGGGGACCGUCCCCUCGGUAAUGGCGAAUGGGACCCA [C13U G34C]: the self-cleavage is 0.0898.

Take GGCCGGCAUGGUUCCAGCCUCCUCGCUGGCGCCGGCUGGGCAACAUUCCGAGGGGACCGUCCCCUCGGUAAUGGCGAAUGGCACCCA [C13U G82C]: the self-cleavage is 0.277.

Take GGCCGGCAUGGUUCCAGCCUCCUCGCUGGCGCCGGCUGGGCAACAUUCCGAGGGGACCGUCCCCUCGGUAAUGGCGAAUGGUACCCA [C13U G82U]: the self-cleavage is 0.359.
